Legend:
Format in all cases: biochemical
[1] = Temperature optimum of heterologously produced endoglucanases; conditions: temperature range 50-85° C., CMC
Procedure: (§1) The pH optimum of the heterologously produced endoglucanases was determined in the universal McIlvaine's buffer within a pH range of 4.0-8.0 using carboxymethylcellulose as substrate. As shown in FIG. 6 A the broadest pH range (4.5-6.0) is that of the Acremonium EG—40/Cel45A protein, the optimum being at pH 5.5. The pH optima for the other heterologously produced endoglucanases are pH 5.0-5.5 and 6.0 for Acremonium EG—40_like/Cel45B and Thermoascus EG—28/Cel5A, respectively. The optimal temperature for enzymatic activity of these endoglucanases was determined at the temperature range of 50-85° C. as described above. The highest activity of the enzymes was determined to be at 75° C., 60° C., and 75° C. for the Acremonium EG—40/Cel45A, EG—40 like/Cel45B, and Thermoascus EG—28/Cel5A, respectively (FIG. 6 B).

[2] = Hydrolysis with endoglucanase preparations, spruce; conditions: 48 h, 45° C., pH 5.0
Procedure: The preparations containing the endoglucanases were compared in hydrolysis studies mixed with the purified CBH/Cel7 and CBH/Cel6 enzymes on several pre-treated substrates. Culture filtrates of T. reesei, containing different cloned endoglucanase enzymes were obtained as described in Example 19. The enzymes were enriched by removing thermolabile proteins from the mixtures by a heat treatment (60° C., 2 h, pH 5) and the supernatant was used for the hydrolysis studies. In addition, pure T. reesei cellulases (purified as described by Suurnäkki et al., 2000) were used in the enzyme mixtures. The endoglucanases used in the experiment were:
Washed steam pre-treated spruce fibre (impregnation with 3% SO2 for 20 min, followed by steam pre-treatment at 215° C. for 5 min), dry matter 25.9% (SPRUCE).
The endoglucanases to be studied (dosage 840 nkat/g dry matter, based on endoglucanase activity against HEC according to IUPAC, 1987) were used either with cellobiohydrolases of T. reesei (CBHI/Cel7A, 8.1 mg/g d.m. and CBHII/Cel6A, 2.0 mg/g d.m.) or with Thermoascus aurantiacus Cel7A with genetically attached CBD of T. reesei (10.1 mg/g d.m.). Purified (Suurnäkki et al., 2000) EGI (Cel7B) and EGII (Cel5A) of T. reesei were also included in the experiments for comparison. All mixtures were supplemented with additional β-glucosidase from Novozym 188 (to make the total β-glucosidase dosage 560 nkat/g d.w., the relatively high dosage was used to compensate the differences in the background activities of the different EG preparations). Triplicate tubes were incubated in mixing at 45° C. for 48 h and reference samples with inactivated enzymes and corresponding substrates were prepared. The release of hydrolysis products was measured as reducing sugars with DNS method using glucose as standard (Table 31).

[3] = pH optimum of heterologously produced endoglucanases; conditions: McIlvaine's buffer, pH range 4.0-8.0, CMC, 10 min, 50° C.
Procedure: as §1

[4] = Endoglucanase activity on carboxymethyl cellulose; conditions: purified endoglucanase, 50° C., procedure of IUPAC 1987
How it was run: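 Endoglucanase activity of purified enzymes from Acremonium thermophilum ALKO4245 and Thermoascus aurantiacus ALKO4242 measured on carboxymethyl cellulose by the IUPAC 1987 standard procedure. Protein by Lowry for purified preparations; the A. thermophilum supernatant was pre-incubated 24 h at 70 °C before purification.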

B1: Ta EG_28: endoglucanase of Thermoascus aurantiacus ALKO4242, gene Ta cel5A, amino acid SEQ ID NO: 10 (protein)
chain: MKLGSLVLALSAARLTLSAPLADRKQETKRAKVFQWFGSNESGAEFGSQNLPGVEGKDYIWPDPNTIDTLISKGMNIFRVPFMMERLVPNSMTGSPDPNYLADLIATVNAITQKGAYAVVDPHNYGRYYNSIISSPSDFQTFWKTVASQFASNPLVIFDTNNEYHDMDQTLVLNLNQAAIDGIRSAGATSQYIFVEGNSWTGAWTWTNVNDNMKSLTDPSDKIIYEMHQYLDSDGSGTSATCVSSTIGQERITSATQWLRANGKKGIIGEFAGGANDVCETAITGMLDYMAQNTDVWTGAIWWAAGPWWGDYIFSMEPDNGIAYQQILPILTPYL
Temperature of highest activity [1]: 75 °C | Hydrolysis products as reducing sugars, SPRUCE ([2]; with CBHI and CBHII of T. reesei): 3.0 mg/mL | Hydrolysis products as reducing sugars, SPRUCE ([2]; with T. aurantiacus Cel7A + Tr CBD): 1.5 mg/mL | pH optimum [3]: 6.0 | Specific activity on CMC [4]: 4290 nkat/mg
